The record followed here is patent US20060107351A1 (FLORIGENE, published 2006).

This series concerns the molecule itself. Nature of the series: self-association; SDS-PAGE under reducing (Mr 26,900) versus non-reducing (Mr 114,000) conditions.

B1: Rtms-5 colored protein tagged with hexahistidine at its C-terminus (other)
chain: SVIATQMTYKVYMSGTVNGHYFEVEGDGKGKPYEGEQTVKLTVTKGGPLPFAWDILSPQCQYGSIPFTKYPEDIPDYVKQSFPEGFTWERIMNFEDGAVCTVSNDSSIQGNCFTYHVKFSGLNFPPNGPVMQKKTQGWEPHSERLFARGGMLIGNNFMALKLEGGGHYLCEFKTTYKAKKPVKMPGYHYVDRKLDVTNHNKDYTSVEQCEISIARKPVVAHHHHHH
notes: also called RTms-5.pep; Rtms5.pep
B1: the binding result is “binds”.
